Assay results published in article PMC4609913 (2015).

How the values were obtained:
[1] = biological target: T1, recombinant ADAM10 (A Disintegrin and Metalloproteinase 10) (UniProt O14672 20-748); experiment: FRET
T1 chain: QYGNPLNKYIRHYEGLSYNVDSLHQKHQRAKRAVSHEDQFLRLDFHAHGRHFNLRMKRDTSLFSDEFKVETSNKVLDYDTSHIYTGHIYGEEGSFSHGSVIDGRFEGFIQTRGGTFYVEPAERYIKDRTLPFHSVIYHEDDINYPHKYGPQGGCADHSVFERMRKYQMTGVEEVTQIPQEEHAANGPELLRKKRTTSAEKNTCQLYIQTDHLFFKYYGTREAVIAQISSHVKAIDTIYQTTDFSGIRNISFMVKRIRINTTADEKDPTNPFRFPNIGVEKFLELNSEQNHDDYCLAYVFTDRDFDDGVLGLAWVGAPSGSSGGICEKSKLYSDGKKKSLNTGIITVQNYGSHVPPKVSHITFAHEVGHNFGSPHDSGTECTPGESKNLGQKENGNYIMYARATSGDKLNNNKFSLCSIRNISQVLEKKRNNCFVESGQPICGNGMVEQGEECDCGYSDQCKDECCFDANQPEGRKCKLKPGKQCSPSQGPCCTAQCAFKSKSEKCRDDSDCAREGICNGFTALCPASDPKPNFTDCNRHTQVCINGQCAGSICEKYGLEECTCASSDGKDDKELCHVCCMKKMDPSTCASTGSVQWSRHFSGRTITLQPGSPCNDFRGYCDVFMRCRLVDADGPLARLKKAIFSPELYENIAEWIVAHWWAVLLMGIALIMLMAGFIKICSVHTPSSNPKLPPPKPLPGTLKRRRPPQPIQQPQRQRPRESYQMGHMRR

[2] = biological target: recombinant ADAM17 (A Disintegrin and Metalloproteinase 17) (UniProt P78536 215-671); experiment: FRET
recombinant ADAM17 (A Disintegrin and Metalloproteinase 17), sequence (P78536 215-671): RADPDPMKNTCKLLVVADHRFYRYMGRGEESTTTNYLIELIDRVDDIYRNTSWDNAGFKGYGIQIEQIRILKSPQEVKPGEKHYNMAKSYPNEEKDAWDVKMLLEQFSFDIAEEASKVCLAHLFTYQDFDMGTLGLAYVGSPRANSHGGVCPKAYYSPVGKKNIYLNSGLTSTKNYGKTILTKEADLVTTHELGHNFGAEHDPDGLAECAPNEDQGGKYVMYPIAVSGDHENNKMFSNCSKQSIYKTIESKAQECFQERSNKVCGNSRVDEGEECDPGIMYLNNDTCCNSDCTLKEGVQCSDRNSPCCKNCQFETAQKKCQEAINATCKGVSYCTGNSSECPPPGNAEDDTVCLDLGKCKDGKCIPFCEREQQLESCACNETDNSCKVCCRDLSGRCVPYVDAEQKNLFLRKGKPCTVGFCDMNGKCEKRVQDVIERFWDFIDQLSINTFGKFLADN

B1: recombinant His-tagged human ADAM12 prodomain (amino acids 29-206) (domain or fragment)
chain: RGVSLWNQGRADEVVSASVGSGDLWIPVKSFDSKNHPEVLNIRLQRESKELIINLERNEGLIASSFTETHYLQDGTDVSLARNYTVILGHCYYHGHVRGYSDSAVSLSTCSGLRGLIVFENESYVLEPMKSATNRYKLFPAKKLKSVRGSCGSHHNTPNLAAKNVFPPPSQTWARRHK
[1]
  Ki: > 14 µM
[2]
  Ki: > 14 µM
